Assay: soluble on expression in E. coli; label from the status in PepcDB or PDB records

Sequence | soluble on expression in E. coli
MGSDKIHHHHHHFDGFGAVSGGGATSKLLFTYFSEKSDRKQVLESLFNKDNGLQLLKVEMGGDDQSTEGTESSHESEKGKISKNNYEFQLISEVREINPTIPICVLPWAFPGWIGNTPYDNVTETAEYVVNWLKIGRDTWNFDTFCVGVWNERNFSESYVKELRKILNLNGFNETLIVAGEGFRMDDSYSRLLDKRFINEYDIIG | not soluble
GWLDLAPSTQVDTETSINVLSDIEFTLNGIYSTMQSSDAYSGRLVYYGDVTGDDMQAVSSTKRTGNYYRFNFTKDNGPSSHWSYLYSIIQNCNLILMNVDKLSIDEDETEYKNDLKGQALAIRGMALFDLTRIFGYPYLKDNGASLGVPIVKELSTIDSKPARNTVAECYTEIISDLKNSTELLSGDFNKGKVNRWAAMTLLSRVYLYKGEYNEALTMAENAIKGAEKEGYALWTNEEYPTAWGNDASASNPGEILFEIVNLTTDSPGKESMGYLNSYNGYDDMCITCSFYQLLKKDPKDVRLKILSFDKKYYAYVNKYQPQQGENITDANIPLIRLSEAYLNAAEAAVQTGDNAKAVKYLNSIVQRANPENSVEGKTLTLENVLDERRKELVAEGHRMYDVIRNGMTVKRIDVKDSDINKTKHNTAYMEYDWNFHKILLPIPKKEMDANPNMKQNPGYVD | soluble
MSLKPVMIIQFSASEGPGHFGDFLAGEHIPFQVLRMDRSDPLPAEIRDCSGLAMMGGPMSANDDLPWMPTLLALIRDAVAQRVPVIGHCLGGQLLAKAMGGEVTDSPHAEIGWVRAWPQHVPQALEWLGTWDELELFEWHYQTFSIPPGAVHILRSEHCANQAYVLDDLHIGFQCHIEMQAHMVREWCSISPEELKGGAEADPAQPMVQSAVEILRDLDVRIATLNRWAEHVYARWIKGLQREGHHHHHH | soluble
MSRATYIIGALAGSAVVAYVCDKVISDDKLFGGTTPGTITNKEWGAATEERLQAWPRVAGPPVVMNPISRQNFIVKSRPE | not soluble
MWIGMRDKWKGVGKVTQQEIIESLLQFINQETSTEEEFNEHALMLFAYQYENNLPYRTYCMQKGKTARTVKTWRDIPAVPINAFKELTLSCVSPEQAERVFMTSGTTRGVRGKHYHPTLSVYDHSMIVNFRKRFMKERDKIKMGILFPTEEHMPNSSLAHYLALAVNVFGTEDSHYLVDRDGLNMDRLLAELEQAEQSGEPYALLGASFSFVHVFEELAKRGKTFRLPEGSRILDTGGFKNQSREMDLDEFYDTLSAYLGVPRRECINMYGMTELSTQFYDDGNETVPSVKSGPHWIRTRVIHPLTGEEMPKGKRGVLVHCDLGNFNSVTTILTEDMGVETDGGFLLLGRVQGAEAKGCSMAVEEFIRAAKGTSELEHHHHHH | not soluble
MGHHHHHHSHMSRPGHGGLMPVNGLGFPPQNVARVVVWEWLNEHSRWRPYTATVCHHIENVLKEDARGSVVLGQVDAQLVPYIIDLQSMHQFRQDTGTMRPVRRNFYDPSSAPGKGIVWEWENDGGAWTAYDMDICITIQNAYEKQHPWLDLSSLGFCYLIYFNSMSQMNRQTRRRRRLRRRLDLAYPLTVGSIPKSQSWPVGASSGQPCSCQQCLLVNSTRAASNAILASQRRKAPPAPPL | not soluble
MGSDKIHHHHHHMLICATCAVERDEPAPELCPICTDERQYVPEEGQKWLTLDGLAQQGQQTVLRENEPGLIGIRTEPKVGIGQTAQLVVTHEGSLLWDPVGYVDDSAVNAALERGPVLAIAASHPHMFGVQVEWSHRLGGVPVLVADADRRWLGRNDPVIEYWSGSHTIAEGLTLHQTGGHFPGSAVVHWAAGAAGRGVLLTGDSVYPNPDRRSISFMRSYPNHLPLSGAVALRIAAQLGELEFDRIYGNFNNVIASGAKAALHDSAQRHAAWARGDFDHLT | not soluble
MGHHHHHHSHMNGRADFREPNAEVPRPIPHIGPDYIPTEEERRVFAECNDESFWFRSVPLAATSMLITQGLISKGILSSHPKYGSIPKLILACIMGYFAGKLSYVKTCQEKFKKLENSPLGEALRSGQARRSSPPGHYYQKSKYDSSVSGQSSFVTSPAADNIEMLPHYEPIPFSSSMNESAPTGITDHIVQGRNFS | soluble
AALAEIVAQLNIYQSQVELIQQQMEAVRATISELEILEKTLSDIQGKDGSETLVPVGAGSFIKAELKDTSEVIMSVGAGVAIKKNFEDAMESIKSQKNELESTLQKMGENLRAITDIMMKLSPQAEELLAAVA | soluble
MAQPSTTYKFELNLTDLDRGVYESVKQTIARHPSETEERMTVRLLAYAFWYNEQLAFGRGLSDVDEPALWEKSLDDRVLHWIEVGQPDADRLTWCSRRTERTSLLAYGSLRVWEGKVIPAIKNLKNVNIAAVPQDVLEVLAKDMPRVIKWDVMISEGTVFVTDDRGQHEVQLQWLTGERG | soluble
MSLEGVENKVIVLAGMIGAGKSSYTELIANELGTKAFYESIKDNRILEMFYDDPKRWAFALQIYFLNTRFRSIKAALTDQNNVLDRSIYEDALFTQINFEEGNISEPEMDTYLDLLDNMMEELAYMPKKAPDLLIYLRGSLDTVLSRIALRGRPYEQIDDNPGLLEYYKHLHSRYDSWFASYDKSETLVINIDEIDINKPNDADYVMQLIHEKLKREGHHHHHH | soluble
MGSDKIHHHHHHMNYPFIYPGAIHMHTTYSDGSATFPHLIAAAREAGLRWVIVTDHDTLEGLPFAGWHDDVLVIVGHEITPDHNHFLALNVDTVISNELPPQQFIDEVYQRGGFGIIAHPDERVRNSFKDIYRWDDWTIDGPSQRTGRVVGLELWNFMSDWGEHLTERNKLALVLYPQLGLSGPTLATLAWWDRLNMVGRRTFGIGGVDAHGFKRKAPWGEIEVFPYPWIFRTLTNYLLLPEPLSSDATTATNQVYAALTAGRCYFVNRLDGDAPSIIFRLSRPGDLAEIGDTISLAGGPLLVEVDVGADAYARLIVNGEVMTSGIRRIRQTVTDDGVYRVEAYWGGKPWLFTNPIFVTAADAGREGSL | not soluble
MGSDKIHHHHHHMTLQFLGAAREVTGSCHLVTVAGKHLLLDCGLIQGGKADELRNHEPFVFDPQTIVAVVLSHAHIDHSGRLPLLVKAGFDGPIYTHKATAELCAIMLKDAAMLQVRDTERTNKKRAKHDLAPLEPLFTVEDAEQAISQFVSLEYGQVTRVIPHVDICLSDAGHILGSALVELWLGEGKSQKKIVFSGDLGRAGMPILQNPTLVDTADLVLMESTYGNRFHRSWTDTLAELKDIFAKTVNESQGNILLPAFSVGRAQELLYLFHLYAKEWDLGRWKICLDSPMAIEATRVYVNNYPLMDEDFKRFTRQHPGQHPLLSNVEFIQTTEESIALNEVHKGLIIIAGSGMCNGGRIRSHLEHNLWRSECDVIICGFQALGTPGRALVDGAKELTIHGNSVNVAAKLHTVGGLSAHADQAELLRWYRHFEEQPPLVLVHGEPEAQQGLVAVMNQDPKTKPKALAIATRGDMLDLTALPKLVWVTA | not soluble
MEKEQLIEIANTIMPFGKYKGRRLIDLPEEYLLWFARKDEFPAGKLGELMQITLLIKNEGLTQLVQPLKRPL | soluble
SEKLAASTEPQGPRPVLGRESVQVPDDQDFRSFRSECEAEVGWNLTYSRAGVSVWVQAVEMDRTLHKIKCRMECCDVPAETLYDVLHDIEYRKKWDSNVIETFDIARLTVNADVGYYSWRCPKPLKNRDVITLRSWLPMGADYIIMNYSVKHPKYPPRKDLVRAVSIQTGYLIQSTGPKSCVITYLAQVDPKGSLPKWVVNKSSQFLAPKAMKKMYKACLKYPEWKQKHLPHFKPWLHPEQSPLPSLALSELSVQHADSLENIDESAVAESREERMGGAGGEGSDDDTSLT | soluble
QQIGLKTNLLYWGTTTPNAGLEFRMGKKWTLDVSGGYNPFTFSHHRKLKHWLVAPELRYWTCEAFSGHFFGLHGIGGEYNVNDIDIPIGRLKKLNNYRYE | not soluble
MATRNEEILRKPDWLKIKLNTNDNYTGLKKMMREKNLHTVCEEAKCPNIHECWGARRTATFMILGAVCTRACRFCAVKTGLPNELDLNEPERVAESVELMNLKHVVITAVARDDLRDQGSNVYAETVRKVRERNPFTTIEILPSDMGGDYEALETLMASRPDILNHNIETVRRLTPRVRARATYDRTLQFLRRSKELQPDIPTKSSLMVGLGETMEEIYETMDDLRANDVDILTIGQYLQPSRKHLKVEKYYTPLEFGKMRKIAMEKGFKHCQAGPLVRSSYHADEQVNEAAKEKQRQGEEQLN | not soluble
MKLHEHQAKEIFAKYGIPVPEGKVAFSLKEAKEVAEELGEFPLVVKAQIHCGGRGKAGGVKIVKDMDELEKAVESLLGKVLKTFQCPDGKPVNRVLIEKATNIDKEYYLAITLDRSKSKPVIMASAAGGMEIEEIVKENPEAIIIETIDPELGLMPYQARELAFKLNLPVKEFASIALKLYQIYSDLDASLVEINPLVLTKEGNLIALDAKLDIDDNALFRHKDLEEMEDETQLPQLEVEAKKYGLNYIKLNGNIGCMVNGAGLAMATMDIIKLAGGEPANFLDVGGGANVEQIANAFRILMADPDVKAVFINIFGGILRVDRLAQGLIEASKMVELRVPIVARLEGTNVEEGKRMLQESGLNFIIAEDMWDGAKKAVEIANKQS | soluble
MSLTKKELPLDGLIPYCEQCGDFRFPVFSVAVSMIVMNEGGDQVLLIKQYWKDSYILVAGYVNKGENAEDSCRRELMEELHLTAKSLHFNRSQYFAPSNTLMLNYTVTVDQAEKVSPNEEIDAWNWLSIDEARRQIRPNSLARTFLLEYLNKCKLHREGHHHHHH | soluble
DPQSVETALNVAREGLVLLKNENNILPINPQKYKHIIVTGKNAHGYVHGGGSGAVVPFHYTNLFDGIQKEGKLNNVKVEYIDELDFMPSIMYTDDNLNEKGFHAEYFKNIHFEGAPVVKQTEKKINYSWAAGTELEGMPKDYFSVKWYSTMCVDETADYEFTLGGDDGYKLFINDQPIIDDWTPGGFRTTNVTKTLKAGEKYHVRVEYYQQGGGAGICFLWKRKNETQNKFADYLNKADLVIACFGHSSDTEGEASDRTFELPEVDKKMLASLSGCKKPVIGIVNAGGNIEMQKWEPSLKGLIWGFYGGQEAGTAIGEALFGKVNPSGKLPMTFEKKWEDSPAYNSYHDPDKDKHVAYTEGIFIGYRGYDKLKREVQYPFGYGLSYTTF | not soluble
DIQMSQSSSSFSVSLGDRVTITCKASEDIYSRLAWYQQKPGNAPRLLISGATSLETWVPSRFSGSDSGKDYTLSITSLQTEDVATYFCQQYWSPPPTFGGGTKLEIKRADAAPTVSIFPPSSEQLTSGGASVVCFLNNFYPKDINVKWKIDGSERQNGVLNSWTDQDSKDSTYSMSSTLTLTKDEYERHNSYTCEATHKTSTSPIVKSFNRNEC | soluble
MSSYEMFADKNIVAGELANLMASAGWGTEGDYDATAIEKSLSAYPMIAYCRDSDGLLVGYISAFTDGAFSTFVGELVVRPTYQQRGIGSALLAMIVEKCRGVPVYATPFQGTEKFFLDRGFRVPERPMSVVSMRNVT | not soluble
MDDATNKKRKVFVSTILTFWNTDRRDFPWRHTRDPYVILITEILLRRTTAGHVKKIYDKFFVKYKCFEDILKTPKSEIAKDIKEIGLSNQRAEQLKELARVVINDYGGRVPRNRKAILDLPGVGKYTCAAVMCLAFGKKAAMVDANFVRVINRYFGGSYENLNYNHKALWELAETLVPGGKCRDFNLGLMDFSAIICAPRKPKCEKCGMSKLCSYYEKCST | soluble
